Target: E2F-1 (UniProt Q01094)
Assay: cell_activity
Details: CHO cells, -T antigen; CAT/bGAL 5.2 vs 2.6

Sequence of E2F-1 (Q01094 whole entry): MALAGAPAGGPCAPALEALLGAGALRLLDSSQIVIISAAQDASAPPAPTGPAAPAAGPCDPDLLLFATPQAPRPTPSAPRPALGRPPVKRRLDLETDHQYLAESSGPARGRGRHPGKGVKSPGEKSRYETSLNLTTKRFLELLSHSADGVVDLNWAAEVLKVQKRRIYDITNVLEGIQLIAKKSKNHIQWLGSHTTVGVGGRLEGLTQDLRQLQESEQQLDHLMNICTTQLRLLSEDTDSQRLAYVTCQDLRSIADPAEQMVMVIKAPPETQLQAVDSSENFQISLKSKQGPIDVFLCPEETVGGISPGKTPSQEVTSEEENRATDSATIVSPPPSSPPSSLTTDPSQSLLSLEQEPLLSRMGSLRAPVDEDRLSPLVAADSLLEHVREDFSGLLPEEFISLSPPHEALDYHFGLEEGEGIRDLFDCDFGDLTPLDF

HGAPDH promoter (-487 to +21)-CAT showed an activity of 2 fold.

Reference: patent publication US5496831
